This data set addresses T1, p52 (NF-kB2) (human, UniProt Q00653 1-408).
T1 sequence: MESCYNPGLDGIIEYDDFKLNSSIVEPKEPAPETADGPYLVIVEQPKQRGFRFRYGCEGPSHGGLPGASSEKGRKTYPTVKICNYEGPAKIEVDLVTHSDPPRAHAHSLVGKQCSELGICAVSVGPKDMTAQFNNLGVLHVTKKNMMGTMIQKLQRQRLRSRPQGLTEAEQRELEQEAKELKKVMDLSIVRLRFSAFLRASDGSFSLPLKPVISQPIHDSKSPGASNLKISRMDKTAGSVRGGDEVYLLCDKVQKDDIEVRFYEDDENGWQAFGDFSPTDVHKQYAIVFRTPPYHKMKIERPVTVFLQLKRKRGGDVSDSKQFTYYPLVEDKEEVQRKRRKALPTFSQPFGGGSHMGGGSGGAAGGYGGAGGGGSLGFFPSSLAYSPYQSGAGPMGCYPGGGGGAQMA
The data set is described as follows: EMSA.

B1: P-selectin kB (A/T) (dsDNA)
DNA 1: TCGACGGAAGGGGGTAACCCCTTGGG
DNA 2: GATCCCCAAGGGGTTACCCCCTTCCG
For the molecule B1, the binding result is reported as “binds”.

The values are drawn from paper PMC4167904.
